Measured values published in paper PMC4670726 (2015).

How the values were obtained:
Test in all cases: FP competition (Ki)
IRS1 = target: T1, IRS1 (Homo sapiens (Human), UniProt P35568)
T1 chain: RLARPTRLSL

GAB3b = target: T2, GAB3b (Homo sapiens (Human), UniProt Q8WWW8)
T2 chain: KPQRKSRPPPLDLRNLS

DOCK5 = target: T3, DOCK5 (Homo sapiens (Human), UniProt Q9H7D0)
T3 chain: KAQRPKSLQLM

RHDF1 = target: T4, RHDF1 (Homo sapiens (Human), UniProt Q96CC6)
T4 chain: SLQRKKPPWLKLDIPS

PDE4B = target: T5, PDE4B (Homo sapiens (Human), UniProt Q07343)
T5 chain: EGDGISRPTTLPLTTLPS

KSR2 = target: T6, KSR2 (Homo sapiens (Human), UniProt Q6VAB6)
T6 chain: KKKSKPLNLKI

JAZF1 = target: T7, JAZF1 (Homo sapiens (Human), UniProt Q86VZ6)
T7 chain: SLKKKIQPKLSLTLS

APBA2 = target: T8, APBA2 (Homo sapiens (Human), UniProt Q99767)
T8 chain: RHEARPKSLNLL

CCNT2 = target: T9, CCNT2 (Homo sapiens (Human), UniProt O60583)
T9 chain: KKEKSGSLKLRIPIP

AAKG2 = target: T10, AAKG2 (Homo sapiens (Human), UniProt Q9UGJ0)
T10 chain: SQKRRSLRVHIP

DCX = target: T11, DCX (Mus musculus (Mouse), UniProt O88809)
T11 chain: SLRKHKVDLYLPLSL

MYO9B = target: T12, MYO9B (Homo sapiens (Human), UniProt Q13459)
T12 chain: LERPTSLALD

DOCK7 = target: T13, DOCK7 (Homo sapiens (Human), UniProt Q96N67)
T13 chain: RSAVRPASLNLNRSR

B1: JNK1 (protein)
chain: DNNFYSVEIGDSTFTVLKRYQNLKPIGSGAQGIVCAAYDAILERNVAIKKLSRPFQNQTHAKRAYRELVLMKCVNHKNIIGLLNVFTPQKSLEEFQDVYIVMELMDANLCQVIQMELDHERMSYLLYQMLCGIKHLHSAGIIHRDLKPSNIVVKSDCTLKILDFGLARTAGTSFMMTPYVVTRYYRAPEVILGMGYKENVDLWSVGCIMGEMVCHKILFPGRDYIDQWNKVIEQLGTPCPEFMKKLQPTVRTYVENRPKYAGYSFEKLFPDVLFPADSEHNKLKASQARDLLSKMLVIDASKRISVDEALQHPYINVWYDPSEAEAPPPKIPDKQLDEREHTIEEWKELIYKEVMDLE
- Kd (IRS1): 3.5 µM
- Kd (GAB3b): 13.2 µM
- Kd (DOCK5): 5.1 µM
- Kd (RHDF1): > 100 µM
- Kd (PDE4B): 16.4 µM
- Kd (KSR2): 24.7 µM
- Kd (JAZF1): > 100 µM
- Kd (APBA2): 10.8 µM
- Kd (CCNT2): > 100 µM
- Kd (AAKG2): > 100 µM
- Kd (DCX): 16.7 µM
- Kd (MYO9B): 15.9 µM
- Kd (DOCK7): 7.3 µM
